Source: patent publication US20160194391A1
Numbering of substitutions follows the chain as printed.

Key:
human IL-6 (human) [1] = target: human IL-6 (human) (UniProt P05231); assay: cell-based or functional assay
3×FLAG-IL-6 (human) [2] = assay: SPR, 3×FLAG-IL-6 captured by anti-FLAG M2 on protein G, scFv-PEG as analyte; material refolded by dialysis from urea
3×FLAG-IL-6 (human) [3] = assay: SPR, 3×FLAG-IL-6 captured by anti-FLAG M2 on protein G, scFv-PEG as analyte; material refolded by dialysis from urea; refolded by dialysis from urea
3×FLAG-IL-6 (human) [4] = assay: SPR, 3×FLAG-IL-6 captured by anti-FLAG M2 on protein G, scFv-PEG as analyte; material refolded by rapid dilution from SDS; refolded by rapid dilution from SDS
human IL-6 (human) [5] = target: human IL-6 (human) (UniProt P05231)
[6] = target: human dimeric IL-23 (eBiosciences 34-8239) (human) (UniProt P29460)
Sequence of human dimeric IL-23 (eBiosciences 34-8239) (human) (P29460 23-328 limits assumed, chain 1 of 2): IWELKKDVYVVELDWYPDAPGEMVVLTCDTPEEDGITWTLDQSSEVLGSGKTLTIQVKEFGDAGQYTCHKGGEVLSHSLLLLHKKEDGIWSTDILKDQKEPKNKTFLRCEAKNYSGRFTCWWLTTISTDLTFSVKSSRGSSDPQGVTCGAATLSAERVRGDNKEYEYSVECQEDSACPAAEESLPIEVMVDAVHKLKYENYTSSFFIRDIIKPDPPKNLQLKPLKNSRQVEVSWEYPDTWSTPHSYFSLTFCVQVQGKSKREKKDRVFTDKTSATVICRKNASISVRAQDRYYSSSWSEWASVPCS
Sequence of human dimeric IL-23 (eBiosciences 34-8239) (human) (Q9NPF7 20-189 limits assumed, chain 2 of 2, further chain): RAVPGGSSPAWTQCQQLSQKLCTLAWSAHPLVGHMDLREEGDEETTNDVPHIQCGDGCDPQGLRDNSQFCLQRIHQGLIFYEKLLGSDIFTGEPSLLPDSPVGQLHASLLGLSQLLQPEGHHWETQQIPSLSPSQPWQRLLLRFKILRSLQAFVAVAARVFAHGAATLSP

Sequence of 3×FLAG-IL-6 (human) (chain, as listed by the source limits assumed): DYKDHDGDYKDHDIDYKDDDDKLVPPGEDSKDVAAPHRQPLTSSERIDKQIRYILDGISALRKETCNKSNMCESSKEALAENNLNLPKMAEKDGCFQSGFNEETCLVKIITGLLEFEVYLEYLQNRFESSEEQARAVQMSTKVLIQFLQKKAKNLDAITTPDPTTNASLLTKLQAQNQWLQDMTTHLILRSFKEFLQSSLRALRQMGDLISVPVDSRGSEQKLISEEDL
Sequence of human IL-6 (human) (P05231 30-212 limits assumed): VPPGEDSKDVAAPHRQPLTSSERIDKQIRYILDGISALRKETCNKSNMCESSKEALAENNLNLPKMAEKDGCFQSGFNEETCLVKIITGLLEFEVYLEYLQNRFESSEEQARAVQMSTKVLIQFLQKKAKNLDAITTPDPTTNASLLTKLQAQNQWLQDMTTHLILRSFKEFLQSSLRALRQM

B1: 28D2c-PEG (scFv)
scFv: MAHHHHHHPPPPAAADIQLTQSPSFLSASVGDRVTITCQASEDLFSSLAWYQQKPGKAPKLLIYSASTLASGVPSRFSGSGSGTDFTLTISSLQPEDFATYYCLGLYYYLTPDPIYGFGGGTKVEIKGGGGSGGGGSGGGGSGGGGSEVQLVESGGGLVQPGGSLRLSCTVSGLSLSKNAIAWVRQAPGKGLEWVGIIYAGGATTYASWAKGRFTISRDNSKNTLYLQLNSLRAEDTAVYYCAREYAGDSYYTGYTQLDLWGQGTLVTVSSGM
modifications: C-terminal azidohomoalanine (Aha) conjugated to 30 kDa linear PEG alkyne
Q: Which EC50, IL-6 neutralization; folded by dialysis from urea (human IL-6 (human) [1]) does the source give for B1 here?
A: 0.116 ng/mL

Q: What about the EC50 of the product; folded by rapid dilution from SDS (human IL-6 (human) [1]) of the same binder?
A: 0.256 ng/mL

Q: And the EC50 of the product; folded by rapid dilution from urea (human IL-6 (human) [1])?
A: 0.138 ng/mL

Q: And the EC50 of the product; folded from guanidine (human IL-6 (human) [1])?
A: 0.15 ng/mL

Q: What about the Kd (3×FLAG-IL-6 (human) [2]) of the same binder?
A: 193 pM

Q: What about the koff (3×FLAG-IL-6 (human) [2]) of the same binder?
A: 9.78e-05 s⁻¹

Q: And the kon (3×FLAG-IL-6 (human) [3])?
A: 507000 M⁻¹ s⁻¹

Q: What about the Kd (3×FLAG-IL-6 (human) [4]) of the same binder?
A: 319 pM

Q: And the koff (3×FLAG-IL-6 (human) [4])?
A: 0.000104 s⁻¹

Q: And the kon (3×FLAG-IL-6 (human) [4])?
A: 326000 M⁻¹ s⁻¹

B2: 28D2-C Aha (scFv)
scFv: B1 scFv
modifications: azidohomoalanine (Aha) in place of the single Met, at the C terminus
Q: With B2 as the binder, how does the IC50 (read off the curve) (B9 proliferation, OD570-600) (human IL-6 (human) [5]) read?
A: 0.03 ng/mL

B3: 28D2 N-Aha (scFv)
scFv: MEDIQLTQSPSFLSASVGDRVTITCQASEDLFSSLAWYQQKPGKAPKLLIYSASTLASGVPSRFSGSGSGTDFTLTISSLQPEDFATYYCLGLYYYLTPDPIYGFGGGTKVEIKGGGGSGGGGSGGGGSGGGGSEVQLVESGGGLVQPGGSLRLSCTVSGLSLSKNAIAWVRQAPGKGLEWVGIIYAGGATTYASWAKGRFTISRDNSKNTLYLQLNSLRAEDTAVYYCAREYAGDSYYTGYTQLDLWGQGTLVTVSSGPPPPPHHHHHH
modifications: azidohomoalanine (Aha) in place of the single Met, at the N terminus
Q: B3 was tested. Which IC50 (read off the curve) (B9 proliferation, OD570-600) (human IL-6 (human) [5]) did it give?
A: 0.03 ng/mL

B4: 28D2-L Aha (scFv)
scFv: B3 scFv with E2A, G121M
modifications: azidohomoalanine (Aha) in place of a single Met in the Gly/Ser linker between VL and VH
Q: B4 was tested. Which IC50 (read off the curve) (B9 proliferation, OD570-600) (human IL-6 (human) [5]) did it give?
A: 0.03 ng/mL

B5: 45G5 humanized scFv (mammalian expressed) (scFv)
scFv: DIQLTQSPSFLSASVGDRVTITCQSSQSIYNNNLLSWYQQKPGKAPKLLIYFASTLASGVPSRFSGSGSGTEFTLTISSLQPEDFATYYCLGGYDDDADTAFGGGTKVEIKGGGGSGGGGSGGGGSGGGGSEVQLVESGGGLVQPGGSLRLSCTVSGFSLSVYPINWVRQAPGKGLEWVGIINDVDDTAYSAWAKGRFTISRDNSKNTLYLQMNSLRAEDTAVYYCARGYLSYAYAGDAFDPWGQGTLVTVSSGPPPPHHHHHH
Q: How did the IC50 (read off the curve) (IL-17 from mouse splenocytes, OD450) [6] turn out when B5 was run?
A: 0.4 ng/mL
